Test results: the supplement of paper PMC10724198
± gives the standard deviation of the averaged measurements.

test system: Saccharomyces cerevisiae; experiment: protein stability index of tFT-peptide fusion (C-terminal peptide) (PSI (0-1 scale)); higher = more stable (slower turnover); conditions: genetic background: wild type; temperature: 30 C
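Note: PSI is a weighted mean of sequencing reads over stability bins, variants kept only with over 10 reads, mCherry proximal and sfGFP distal, peptide attached via GGGS linker.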

RVRGAPGLRHES and RVRWLRGVPGGL are within error of each other in protein stability index: 0.5 ± 0.1 for the first, 0.635 ± 0.09 for the second.

RVVCGGMGVRRG and RVVFHPFVQSLF are within error of each other in protein stability index: 0.63 ± 0.077 for the first, 0.62 ± 0.028 for the second.

RVVGLWGSACMG and RVWFWSGRGGEF are within error of each other in protein stability index: 0.603 ± 0.01 for the first, 0.709 ± 0.1 for the second.

Compared with RWAMGAAGGLQA, RWFGRFSFCLFF is lower in protein stability index: 0.697 ± 0.021 for the first, 0.5 ± 0.055 for the second.

RWGPGAVWGRGR and RWGWWGYRGGVP are within error of each other in protein stability index: 0.707 ± 0.068 for the first, 0.744 ± 0.025 for the second.

RWIPRMSFSESQ and RWLGGTGGWKSR are within error of each other in protein stability index: 0.666 ± 0.0097 for the first, 0.673 ± 0.041 for the second.

First: RWPQNRGRVSKP
Second: RWVGWGAWLSEV
The protein stability index of the first is higher: 0.747 ± 0.017 for the first, 0.611 ± 0.02 for the second.

Going from RWVNNKKTKGQD to RWVWRNRSGGGE, the protein stability index falls from 0.767 ± 0.042 to 0.636 ± 0.043.

RYELSLRLYGSL and RYFISAHPGGIA are within error of each other in protein stability index: 0.623 ± 0.089 for the first, 0.66 ± 0.02 for the second.

RYGHSRLCLGFR and RYHPRSHVLGRD are within error of each other in protein stability index: 0.657 ± 0.12 for the first, 0.682 ± 0.063 for the second.

Going from RYKALEAQGPRF to RYLAEKAVLTHN, the protein stability index falls from 0.717 ± 0.0008 to 0.659 ± 0.012.

Going from RYSPFSFLASLP to SACCNFAPAFGQ, the protein stability index falls from 0.732 ± 0.049 to 0.662 ± 0.019.

Going from SADGIVSQVTCL to SAFDVLCHVVVG, the protein stability index falls from 0.693 ± 0.031 to 0.634 ± 0.021.

SAFPGGCCSILL and SAHPFLPLFSPP are within error of each other in protein stability index: 0.709 ± 0.022 for the first, 0.718 ± 0.012 for the second.

First: SALEVSPSNGSF
Second: SALTPCPPPYSH
The protein stability index of the first is lower: 0.598 ± 0.015 for the first, 0.668 ± 0.032 for the second.

SALVLVLPSIPP and SANCQQSRMFIT are within error of each other in protein stability index: 0.649 ± 0.024 for the first, 0.623 ± 0.044 for the second.

First: SAPILPPQSSSP
Second: SAPLVSLHLSPL
The protein stability index of the first is higher: 0.749 ± 0.035 for the first, 0.68 ± 0.011 for the second.

Compared with SAPPDVAPLFSP, SAQPELPNIAPA is lower in protein stability index: 0.74 ± 0.053 for the first, 0.636 ± 0.049 for the second.

SARQCWFSLSDD and SATPFSTEVCPL are within error of each other in protein stability index: 0.639 ± 0.043 for the first, 0.631 ± 0.028 for the second.

SATSFLAAGPPT and SAVPFLRASRNA are within error of each other in protein stability index: 0.6957 ± 0.0063 for the first, 0.693 ± 0.034 for the second.

SAWTPPLCLLPP and SCCPPSRTFFPS are within error of each other in protein stability index: 0.711 ± 0.043 for the first, 0.734 ± 0.0078 for the second.

SCHPDPTRKSPN and SCIFRGNPFLLL are within error of each other in protein stability index: 0.7159 ± 0.0035 for the first, 0.711 ± 0.018 for the second.

SCIIWPAKGCPF and SCLATDSWLAFV are within error of each other in protein stability index: 0.687 ± 0.054 for the first, 0.665 ± 0.058 for the second.

Going from SCNILPRFSPLL to SCSICLWVGHGC, the protein stability index falls from 0.723 ± 0.033 to 0.656 ± 0.028.

SCTDIGWIMRDI and SCYRSCGALLSA are within error of each other in protein stability index: 0.673 ± 0.061 for the first, 0.694 ± 0.011 for the second.

SDFAPTRPPPAP and SDGEHIYPESYR are within error of each other in protein stability index: 0.634 ± 0.051 for the first, 0.695 ± 0.023 for the second.

SDGVSLRSFCWL and SDKRMGSLQMSS are within error of each other in protein stability index: 0.697 ± 0.035 for the first, 0.712 ± 0.033 for the second.

SDKVKRYISTTL and SDLPPCPSRPSP are within error of each other in protein stability index: 0.637 ± 0.023 for the first, 0.661 ± 0.11 for the second.

First: SDQEIKKSQCGG
Second: SDQPTWTAQTSN
The protein stability index of the first is lower: 0.659 ± 0.047 for the first, 0.783 ± 0.025 for the second.

SDRSLPGVPVRF and SDVRANAYRPEH are within error of each other in protein stability index: 0.7234 ± 0.0048 for the first, 0.688 ± 0.042 for the second.

SEAHMGWRGGEK and SEDGPTPAPSTD are within error of each other in protein stability index: 0.643 ± 0.1 for the first, 0.71 ± 0.059 for the second.

SEDLSNNMKQDI and SEEAQRKRNTLK are within error of each other in protein stability index: 0.688 ± 0.026 for the first, 0.6715 ± 0.0051 for the second.

SEGLFSVLYIWM and SEGSRGYLLEIQ are within error of each other in protein stability index: 0.687 ± 0.16 for the first, 0.69 ± 0.029 for the second.

SENEGEGIYVRM and SENKRKEHRMSF are within error of each other in protein stability index: 0.672 ± 0.065 for the first, 0.712 ± 0.05 for the second.

SESLLSQPIVLV and SEVRGRERLAKC are within error of each other in protein stability index: 0.647 ± 0.017 for the first, 0.662 ± 0.041 for the second.

SFATSELRAGNN and SFCGVLCIRACF are within error of each other in protein stability index: 0.701 ± 0.17 for the first, 0.623 ± 0.026 for the second.

SFCSSVFWFFWL and SFCYFSCPSLIM are within error of each other in protein stability index: 0.584 ± 0.037 for the first, 0.718 ± 0.11 for the second.

SFFFRSYCFPAP and SFFGPLADEIID are within error of each other in protein stability index: 0.7169 ± 0.0037 for the first, 0.73 ± 0.014 for the second.

SFFGRVDSRSLP and SFGACSTSERIN are within error of each other in protein stability index: 0.7184 ± 0.0025 for the first, 0.666 ± 0.07 for the second.

SFLPDCLSLFLF and SFLTPFLLSYAT are within error of each other in protein stability index: 0.612 ± 0.058 for the first, 0.636 ± 0.0038 for the second.

Going from SFLWRRSYFVFR to SFPASSLPHSLL, the protein stability index rises from 0.616 ± 0.017 to 0.716 ± 0.043.

SFPLPSPSPLLP and SFPPTSPTHFPL are within error of each other in protein stability index: 0.712 ± 0.05 for the first, 0.703 ± 0.031 for the second.

SFPRSHPPPFPP and SFRDSFVNFGVF are within error of each other in protein stability index: 0.674 ± 0.012 for the first, 0.695 ± 0.045 for the second.

Going from SFSPEQITCNPY to SFTGSASYPKGR, the protein stability index rises from 0.598 ± 0.037 to 0.667 ± 0.0098.

SFVLKAFLTRAV and SGAGRRRGGARE are within error of each other in protein stability index: 0.765 ± 0.23 for the first, 0.651 ± 0.031 for the second.

First: SGCVARTRGLSG
Second: SGDCRLPLPRSP
The protein stability index of the first is lower: 0.62 ± 0.018 for the first, 0.711 ± 0.022 for the second.

First: SGEEVRSVARFF
Second: SGEVIRVTDWLV
The protein stability index of the first is lower: 0.629 ± 0.035 for the first, 0.719 ± 0.038 for the second.

SGGGGGKEAVVR and SGHGGAARRPAP are within error of each other in protein stability index: 0.646 ± 0.019 for the first, 0.733 ± 0.08 for the second.

SGHSRCSPALPV and SGKKERQKTEEE are within error of each other in protein stability index: 0.7123 ± 0.002 for the first, 0.645 ± 0.1 for the second.

SGKSSFLGAVWV and SGLLGVSIHGLR are within error of each other in protein stability index: 0.711 ± 0.0061 for the first, 0.654 ± 0.053 for the second.

SGLRAFVVTLID and SGLRHACTPKSD are within error of each other in protein stability index: 0.673 ± 0.011 for the first, 0.671 ± 0.024 for the second.

SGPRRECVPRSV and SGRGGTGIGERV are within error of each other in protein stability index: 0.682 ± 0.066 for the first, 0.6694 ± 0.00092 for the second.

SGRGQQEENRRL and SGSDGLLVGAPG are within error of each other in protein stability index: 0.7 ± 0.011 for the first, 0.666 ± 0.047 for the second.

SGSGVGVVVSEV and SGSVRSCSNTCL are within error of each other in protein stability index: 0.666 ± 0.049 for the first, 0.6935 ± 0.0011 for the second.

SGTQSGAFSRGQ and SGVGCGRSRWVW are within error of each other in protein stability index: 0.642 ± 0.081 for the first, 0.626 ± 0.029 for the second.

SGVVGLSTSGVV and SGWSWLGLRSGL are within error of each other in protein stability index: 0.695 ± 0.063 for the first, 0.738 ± 0.025 for the second.

SGYSTRPLSSRS and SHLSRSYPGLQL are within error of each other in protein stability index: 0.723 ± 0.041 for the first, 0.742 ± 0.027 for the second.

SHPLLPPHLPPP and SHPPATMRAASV are within error of each other in protein stability index: 0.682 ± 0.082 for the first, 0.6646 ± 0.0043 for the second.

SHRYFFLAFSGL and SHWCLQTQAACK are the same in protein stability index: 0.655 ± 0.02 for the first, 0.65529 ± 0.00032 for the second.

Compared with SILPRWEFKSLS, SILSRPERPLTN is lower in protein stability index: 0.802 ± 0.06 for the first, 0.658 ± 0.044 for the second.

SIPSIPTLHENT and SISVLSSSSLGF are within error of each other in protein stability index: 0.67593 ± 0.00066 for the first, 0.741 ± 0.12 for the second.

SITYDRLLPHSS and SIVRKRPRTTAT are within error of each other in protein stability index: 0.6594 ± 0.0063 for the first, 0.682 ± 0.031 for the second.

SIYNKNKKIKQK and SKDFLLILDPAK are within error of each other in protein stability index: 0.688 ± 0.07 for the first, 0.662 ± 0.021 for the second.

SKEVVVEGKRQS and SKITENTKKKGK are within error of each other in protein stability index: 0.715 ± 0.065 for the first, 0.658 ± 0.019 for the second.

Going from SKKKITGGEAGH to SKLQGYRKLLST, the protein stability index falls from 0.677 ± 0.046 to 0.567 ± 0.0065.

SKLVEIIMKLQG and SKPYNSAIKDIT are within error of each other in protein stability index: 0.618 ± 0.055 for the first, 0.725 ± 0.096 for the second.

SKRCNNNRNTSN and SKVLKSKSTGRG are within error of each other in protein stability index: 0.69 ± 0.044 for the first, 0.75 ± 0.11 for the second.

SKVLRRLEPTIV and SKWGQIKRVAIR are within error of each other in protein stability index: 0.603 ± 0.04 for the first, 0.592 ± 0.038 for the second.

SLAPLPARAPPL and SLCTAGCKNELW are within error of each other in protein stability index: 0.725 ± 0.018 for the first, 0.692 ± 0.076 for the second.

Going from SLDALVDFWSRG to SLDDWSAVFHVV, the protein stability index falls from 0.737 ± 0.066 to 0.542 ± 0.012.

SLDFTERHALAC and SLDKCDKNNGGE are within error of each other in protein stability index: 0.709 ± 0.031 for the first, 0.733 ± 0.065 for the second.

SLEWVGGRRWPI and SLFSLLVLPPPS are within error of each other in protein stability index: 0.731 ± 0.014 for the first, 0.706 ± 0.035 for the second.

First: SLGCIPLVDFLR
Second: SLGFRSLGFDRV
The protein stability index of the first is lower: 0.668 ± 0.0072 for the first, 0.7195 ± 0.0024 for the second.

SLGPPSLSARTN and SLICPPFWPPSF are within error of each other in protein stability index: 0.626 ± 0.045 for the first, 0.691 ± 0.044 for the second.

SLILRKDKKKKK and SLIRSHKLKLFP are within error of each other in protein stability index: 0.69 ± 0.01 for the first, 0.732 ± 0.045 for the second.

SLLDPLLPLLLF and SLLLALPSLPLS are within error of each other in protein stability index: 0.634 ± 0.017 for the first, 0.553 ± 0.18 for the second.

First: SLLPILFPPPPF
Second: SLLSCDETEFSS
The protein stability index of the first is higher: 0.7147 ± 0.0046 for the first, 0.614 ± 0.051 for the second.

SLLSLSPACLPL and SLLTSGSLTLFV are within error of each other in protein stability index: 0.683 ± 0.026 for the first, 0.71 ± 0.037 for the second.

SLLVSRVVFRGN and SLPASTEPNVGT are within error of each other in protein stability index: 0.769 ± 0.12 for the first, 0.696 ± 0.034 for the second.

SLPFFPPRSPPS and SLPFLPPSAPLP are within error of each other in protein stability index: 0.725 ± 0.11 for the first, 0.76 ± 0.014 for the second.
